As a reminder, the Kd is a measure of binding affinity in units of concentration.

What all share (settings): protein: recombinant; label: 5' fluorescein; hairpin
For series [1], the target named is T1, IRP1 (iron regulatory protein 1) (rabbit, UniProt Q01059 1-889).
T1 sequence: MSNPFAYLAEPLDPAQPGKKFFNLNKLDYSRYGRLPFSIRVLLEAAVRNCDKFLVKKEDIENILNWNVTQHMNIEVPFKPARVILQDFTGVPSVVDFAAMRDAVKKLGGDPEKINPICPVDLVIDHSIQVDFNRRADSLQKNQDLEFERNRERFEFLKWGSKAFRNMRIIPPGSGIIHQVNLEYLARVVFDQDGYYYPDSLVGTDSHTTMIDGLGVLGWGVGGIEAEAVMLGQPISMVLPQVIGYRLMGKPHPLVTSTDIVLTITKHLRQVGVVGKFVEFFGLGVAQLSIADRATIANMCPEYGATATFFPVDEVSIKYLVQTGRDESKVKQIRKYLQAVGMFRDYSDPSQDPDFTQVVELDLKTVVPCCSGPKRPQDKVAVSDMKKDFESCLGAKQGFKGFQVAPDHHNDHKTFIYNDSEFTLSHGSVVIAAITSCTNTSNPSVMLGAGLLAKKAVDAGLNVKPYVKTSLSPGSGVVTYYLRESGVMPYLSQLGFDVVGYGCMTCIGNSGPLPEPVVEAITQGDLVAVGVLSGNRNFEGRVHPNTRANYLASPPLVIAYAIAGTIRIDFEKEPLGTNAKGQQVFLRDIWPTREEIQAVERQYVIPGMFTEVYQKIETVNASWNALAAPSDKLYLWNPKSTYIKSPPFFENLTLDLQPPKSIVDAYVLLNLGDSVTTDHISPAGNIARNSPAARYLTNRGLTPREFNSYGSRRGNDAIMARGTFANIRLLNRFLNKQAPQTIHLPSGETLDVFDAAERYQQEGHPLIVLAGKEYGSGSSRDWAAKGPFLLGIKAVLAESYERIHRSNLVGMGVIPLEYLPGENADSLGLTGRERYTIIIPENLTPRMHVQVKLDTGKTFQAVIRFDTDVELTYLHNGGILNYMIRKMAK
Put plainly: fluorescence anisotropy; 25 °C, no Mn2+; 40 mM HEPES pH 7.2, 100 mM KCl, 5-30 °C, ±50 µM Mn2+; labeled RNA 50 nM or 100 nM (Methods). Background: Polarisation of emitted light reports the rotation of a fluorescent probe.

Series [2] has as its target T1, IRP1 (iron regulatory protein 1). Put plainly: fluorescence anisotropy; 30 °C, no Mn2+; 40 mM HEPES pH 7.2, 100 mM KCl, 5-30 °C, ±50 µM Mn2+; labeled RNA 50 nM or 100 nM (Methods).
The target is the same in series [3]. Put plainly: fluorescence anisotropy; 15 °C, no Mn2+; 40 mM HEPES pH 7.2, 100 mM KCl, 5-30 °C, ±50 µM Mn2+; labeled RNA 50 nM or 100 nM (Methods).
Series [4] shares this target. The experiment in a line: fluorescence anisotropy; 10 °C, no Mn2+; 40 mM HEPES pH 7.2, 100 mM KCl, 5-30 °C, ±50 µM Mn2+; labeled RNA 50 nM or 100 nM (Methods).
The target is the same in series [5]. The experiment in a line: fluorescence anisotropy; 5 °C, no Mn2+; 40 mM HEPES pH 7.2, 100 mM KCl, 5-30 °C, ±50 µM Mn2+; labeled RNA 50 nM or 100 nM (Methods).
For series [6] the target is unchanged. The experiment in a line: fluorescence anisotropy; 20 °C, no Mn2+; 40 mM HEPES pH 7.2, 100 mM KCl, 5-30 °C, ±50 µM Mn2+; labeled RNA 50 nM or 100 nM (Methods).

On to CCUCAUCUUUGUCAGUGCACAAAAUGGCG (structured_RNA) [ACO2 IRE-RNA (mitochondrial aconitase IRE)], for which the Kd in series [1] came out at 129 ± 3.3 nM; in series [2], 155 ± 4 nM; in series [3], 89 ± 3 nM; in series [4] it was 69.6 ± 5 nM; in series [5] it was 55.9 ± 3 nM; in series [6], 101 ± 7 nM.
On to GUUCUUGCUUCAACAGUGUUUGAACGGAAC (structured_RNA) [FRT IRE-RNA (ferritin IRE)], for which the Kd was 14.2 ± 0.3 nM in series [1]; 19.2 ± 0.4 nM in series [2]; 8.6 ± 0.3 nM in series [3]; 7 ± 0.2 nM in series [4]; 4.6 ± 0.2 nM in series [5]; 11.7 ± 0.4 nM in series [6].

(Values after publication PMC5561112, “Thermodynamic and Kinetic Analyses of Iron Response Element (IRE)-mRNA Binding to Iron Regulatory Protein, IRP1”.)
